Data: the supplement of paper PMC7125110
± gives the standard error. For some of these results: This sample holds only a part of the variants without activity.

B1: glmS ribozyme (parent)
chain: AUAAAAGCGCCAGAACUACAGAAAUGUAGUUGACGAGGAGGAGGUUUAUCGAAUUUUCGGCGGAUGCCUCCAAA

Legend:
Conditions in all cases: with glucosamine-6-phosphate
glucosamine-6-phosphate [1] = variants of: B1; assay: kcat; higher = faster cleavage; RNA array
Method in brief: (§1)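 Sequenced MiSeq chips were the platform: E. coli RNA polymerase transcribed barcoded ribozyme variants on them in situ, and a hybridised Cy3 probe tracked these at 37 °C. After glucosamine-6-phosphate (40 μM to 10 mM) in HEPES/KCl/Mg(OAc)2 buffer was flowed in, tiles were imaged over ~14 h. Signals normalised to baseline and to non-cleaving reference variants were reduced to per-tile medians and fit to one- or two-exponential decays to obtain kobs. kcat and KM were derived through weighted Michaelis–Menten fits across concentrations.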

glucosamine-6-phosphate [2] = variants of: B1; assay: self-cleavage kobs at 640 uM GlcN6P; higher = faster cleavage; RNA array
Method in brief: as §1

glucosamine-6-phosphate [3] = variants of: B1; assay: self-cleavage kobs at 2500 uM GlcN6P; higher = faster cleavage; RNA array
Method in brief: as §1

glucosamine-6-phosphate [4] = variants of: B1; assay: self-cleavage kobs at 10000 uM GlcN6P; higher = faster cleavage; RNA array
Method in brief: as §1

glucosamine-6-phosphate [5] = variants of: B1; assay: self-cleavage kobs at 40 uM GlcN6P; higher = faster cleavage; RNA array
Method in brief: as §1

glucosamine-6-phosphate [6] = variants of: B1; assay: KM; higher = weaker cofactor use; RNA array
Method in brief: as §1

Variant | kcat (glucosamine-6-phosphate [1]) | self-cleavage kobs at 640 uM GlcN6P (glucosamine-6-phosphate [2]) | self-cleavage kobs at 2500 uM GlcN6P (glucosamine-6-phosphate [3]) | self-cleavage kobs at 10000 uM GlcN6P (glucosamine-6-phosphate [4]) | self-cleavage kobs at 40 uM GlcN6P (glucosamine-6-phosphate [5]) | KM (glucosamine-6-phosphate [6])
AUAAAAGCGCCACAACUACAGAAAUGUAGUUGACGAGGAGGAUGUUUAUCGAAUUUUCGGCGGAUGACUCCAAA | 6.76e-05 ± 3.4e-05 s⁻¹ | – | – | – | – | –
AUAAAAGCGCCACAAGUACAGAAAUGUAGUUGACGAGGAGGAGGUUUAUCGAAUUUUCGGCGGAUGCCUCCAAA | 0.000162 ± 5.6e-05 s⁻¹ | 4.75e-05 ± 2.1e-05 s⁻¹ | 4.43e-05 ± 1.5e-05 s⁻¹ | 0.000108 ± 1.6e-05 s⁻¹ | – | –
AUAAAAGCGCCAUAACUACAGAAAUGUAGUUGACGAGGAGGCGGUUUAUCGAAUUUUCGGCGGAUGCCGCCAAA | 0.00178 ± 0.00081 s⁻¹ | 0.00028 ± 5.9e-05 s⁻¹ | 0.000852 ± 0.00026 s⁻¹ | 0.00141 ± 0.00021 s⁻¹ | 8.5e-05 ± 2.1e-05 s⁻¹ | –
AUAAAAGCGCCACAACUACAGAAAUGUAGUUGACGAGGAGUAGGUUUAUCGAAUUUUCGGCGGAUGCCUCCAAA | 3.06e-05 ± 9.2e-06 s⁻¹ | – | – | – | – | –
AUAAAAGCGCCACAACUACAGAAAUGUAGUUGACGAGGAGGAGGUUUAUCGAAUGUUCGGCGGAUGCCUCCAAA | 0.000125 ± 2.7e-05 s⁻¹ | – | 6.8e-05 ± 9.4e-06 s⁻¹ | 9.6e-05 ± 1.2e-05 s⁻¹ | – | –
AUAAAAGCGCCACAACUACAGAAAUGUAGUUGACGAGGAGGAGGUUUAUCGAAUCUUCGGCGGAUGCCUCCAAA | 9.82e-05 ± 8.2e-06 s⁻¹ | 3.6e-05 ± 1.6e-05 s⁻¹ | 5.66e-05 ± 1.3e-05 s⁻¹ | 8.8e-05 ± 1.5e-05 s⁻¹ | < 1e-05 s⁻¹ | 1.5 ± 0.41 mM
AUAAAAGCGCCACAACUACAGAAAUGUAGUUGACGAGGAGGAGGUUUAUCGAAUUUUCGGCGGAUGCAUCCAAA | 1.1e-05 ± 2.3e-06 s⁻¹ | – | – | – | – | –
AUAAAAGCGCCACAACUACAGAAAUGUAGUUGACGAGGAGGAGGUUUAUCGAAUUUUAGGCGGAUGCCUCCAAA | 0.000354 ± 6.9e-05 s⁻¹ | 4.16e-05 ± 9.2e-06 s⁻¹ | 8e-05 ± 9.7e-06 s⁻¹ | 0.000203 ± 1.3e-05 s⁻¹ | – | 7.61 ± 2.7 mM
AUAAAAGCGCCAUACCUACAGAAAUGUAGUUGACGAGGAGGAGGUUUAUCGAAUUUUCGGCGGAUGCCUCCAAA | 0.000268 ± 2.8e-05 s⁻¹ | 4.71e-05 ± 7.8e-06 s⁻¹ | 0.000142 ± 1.9e-05 s⁻¹ | 0.000202 ± 2.4e-05 s⁻¹ | – | 2.79 ± 0.55 mM
AUAAAAGCGCCACAACUACAGAAAUGUAGUUGACGAGGAGGAGGUUUAUCGAAUUAUCGGCGGAUGCCUCCAAA | 0.000106 ± 6.7e-06 s⁻¹ | – | 4.38e-05 ± 7.3e-06 s⁻¹ | 7.93e-05 ± 9.5e-06 s⁻¹ | – | 3.41 ± 0.53 mM
AUAAAAGCGCCACAACUACAGAAAUGUAGUUGACGAGGAGGAGGUUUAUCGAAUUUUAGGUGGAUGCCUGCAAA | 1.31e-05 ± 2.2e-06 s⁻¹ | – | – | – | – | –
AUAAAAGCGCCACAACUACAGAAAUGUAGUUGACGAGGAGGAGGUUUAUCGAAUUUUCGGCGGAUGCCUGCAAA | 2.09e-05 ± 5.8e-06 s⁻¹ | – | – | – | – | –
